Test results reported in the supplement of paper PMC12042874.
± gives the uncertainty stated by the source.

Assay: amyloid nucleation score (Sup35N fusion, yeast selection) (log enrichment); library NNK2; higher = more nucleation; inactive = no reads after selection
Procedure, shortened: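 Peptides of 20 random codons, each fused to Sup35N, were expressed in psi-negative yeast. Cells were induced with 100 μM copper sulfate for 24 hours and grown 7 days at 30°C on medium lacking adenine and uracil, and plasmid inserts before and after selection were Illumina-sequenced. Nucleation scores are DiMSum log enrichments of output over input reads, centred on the mode score of non-aggregating sequences, and sequences under 100 input reads were excluded.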

Substance	amyloid nucleation score
RWLRPRSFWMDVVGSKI	1.83 ± 0.11
RYCFT	1.03 ± 0.38
RYFLYFCYVGPNSAMFLSR	-0.27 ± 1.1
RYFSISAFMVMGTVNVGGYW	4.18 ± 0.045
RYFWRVSNIVWASAF	-0.498 ± 0.44
RYFYLLWLIVTWIYSRVVIH	inactive
RYIMHL	-0.105 ± 1.1
RYINWLQYECNTLCAVDKSL	-0.436 ± 0.76
RYPLVKFQCYTGNYGKFGNL	3.01 ± 0.071
RYQGLLTPVTAGRLFICIP	-0.363 ± 1.1
RYTWWWHSLFMSDSVAMNSA	-0.334 ± 0.42
RYVYRTVGWHQFLCGTVLFW	0.588 ± 0.16
SAFYKQCEWFFNLMANSLCG	-0.021 ± 0.63
SAGEKWWKGMHYARGRPVRR	0.726 ± 0.2
SAKHTWVISR	0.098 ± 0.79
SALERVKSWSQGNNSIGDHI	-0.418 ± 1.1
SALSLICDRWFDCFLRGTQY	3.66 ± 0.15
SARFCIWVYVSNGNNGMRCV	3.52 ± 0.04
SAVWRHVNDLLLSR	1.11 ± 0.4
SAWRVCYRTNENCAPFMYVL	-1.22 ± 0.75
SAYDSTCRFISGFL	-1.68 ± 1
SCAIELLVQNNSEHLRLITI	-0.266 ± 0.3
SCAVSIVTGRGVHSFVKAWF	0.547 ± 0.17
SCDRIRMCCSWCQV	3.54 ± 0.049
SCENTSSQELWYTCSIDLKL	0.472 ± 0.66

Substance	amyloid nucleation score
SCFGRKLLLLDGA	0.203 ± 0.28
SCFVLLSSVDSLCMQDHF	0.311 ± 0.43
SCHVFFVTIEGNASSANGHR	8.14 ± 0.07
SCIYLGVLRKVCMRFIMVIV	-1.03 ± 0.63
SCKWVRGVSRMPNHWN	-0.618 ± 1.1
SCMFYYCCTDTYKVPYSDAM	7.759 ± 0.067
SCMLFEAAYPRVYMYWSRRF	-1.91 ± 0.75
SCRLFVLYALLFGLSVGCVL	inactive
SCRRMLFGMWILGFLNR	inactive
SCRTQVMVLSLLFKRKVGFN	-1.28 ± 0.36
SCSANCRISLDSSRVVVPYY	0.571 ± 0.64
SCTPGLHQGCRCSVLLWEHR	0.681 ± 0.47
SCWMMFHPNPMQLKFSYCVE	-0.69 ± 0.33
SDCYDDKINVVQSKAVSITL	0.075 ± 0.76
SDGSREFSCKLGGAGLGDGW	0.334 ± 0.5
SDHTVELFTCKPVMQTRQRT	0.439 ± 0.27
SDICTLAEQSGASIRDRLTL	-0.284 ± 1.1
SDMDYLWLCIVRTVLNVIYR	-1.17 ± 1.1
SDMRCGYMLRCWLVQRVSHR	1.48 ± 0.54
SDNEEKTCGAFVVLS	-0.719 ± 0.49
SDNMFSWRCLKDTWLDRRWA	0.294 ± 0.22
SDNVLNDSSCLLYINFGAGQ	2.69 ± 0.15
SDPALVYRITYVIQ	-0.008 ± 0.49
SDSYAILLPC	0.087 ± 0.79
SDVRLVLAASEIRYGAGCRW	0.299 ± 0.65

Substance	amyloid nucleation score
SEANKSGVSVGWCDCAVGCV	0.734 ± 0.21
SECMIRFVNYADGTFNIGHS	-0.22 ± 0.37
SEERPKETRGGFWARVSSGG	0.228 ± 0.74
SEHLTCLWCLW	9.924 ± 0.064
SEMDPPYPEISHYRYQRNHW	0.11 ± 0.54
SENIRDFVLKWCYLDTHDRL	-0.261 ± 1.1
SEQWSQIYGAFSV	-1.32 ± 0.63
SEWDLRVLTWYMWLFVPLVQ	-0.477 ± 0.39
SEWEYPNINE	inactive
SEWSQKRGLVYTVQEFQKLY	inactive
SFAAMLVSSKVVGWVTGRAT	1.68 ± 0.21
SFDKGIDYRFFTFNSNVKYW	3.49 ± 0.12
SFEWKPVFLSRLRPRIRHQV	5.66 ± 0.066
SFGFVAMMIVRCANFRASPV	0.688 ± 0.81
SFGHHPDYRNVMVESYNRMV	0.259 ± 0.23
SFGNYRSVWYVTDVFAHIHL	8.335 ± 0.056
SFGWAYSVICLFIALTRTFL	-0.123 ± 0.26
SFHSCNVS	-0.363 ± 0.74
SFHWPSTGYKRVYFSPLLIV	inactive
SFHYLYWIIRLVGRVYLDEG	-0.195 ± 0.36
SFIVQHE	0.16 ± 0.55
SFIVRQGPTHKFVSECS	-0.887 ± 0.54
SFIWEYNMYYTGLGRITWMP	0.922 ± 0.34
SFLDYRSLTVMFVAGQSTVR	-0.645 ± 0.53
SFLRSNRGEVLPCNILNYVA	inactive

Substance	amyloid nucleation score
SFMDQHFS	-0.419 ± 0.63
SFRANDNSFGCQWRRFLISG	0.032 ± 0.42
SFSPFVYG	-0.868 ± 0.44
SFSVVGNHHVCMDYDMVLNG	0.315 ± 0.32
SFVRPGGWPNK	-0.264 ± 0.76
SFYLLCLSFMSLCWASRLVV	4.83 ± 0.073
SFYRHGFTGNGTSVRGPDRS	0.097 ± 0.79
SFYSVTSPRWH	1.92 ± 0.17
SGARPVYFWLLIPLSYKL	0.285 ± 1
SGEARQH	-0.691 ± 0.49
SGEVSAVRV	0.852 ± 0.19
SGFLIRKHAKLYKPDQPLLV	0.101 ± 0.54
SGFSLDLLVGGPCVPDLTVR	0.228 ± 1
SGGAVAYREAKWWSASNLRS	0.373 ± 0.24
SGHGLWLDAWCRLLDNRGYL	-0.403 ± 0.44
SGILLLRSLFGWPISERGHN	0.167 ± 0.56
SGLPMYCSYRYHSRLGNTYR	2.92 ± 0.064
SGLTSIWQPTRTRMMSPSRR	0.08 ± 0.79
SGNGLLMCPMGSRTGRLFHR	3.54 ± 0.061
SGNICIPFY	inactive
SGPATLLPTLGYNGVIVFGN	-0.444 ± 0.78
SGSIVRGLCVVFSCVFKGSL	-0.874 ± 0.56
SGTYR	inactive
SGVLSLGGVQSWNSLLRWDN	-0.476 ± 0.44
SGWTFGVQCLYTLVSMFLLC	1.5 ± 0.12

Substance	amyloid nucleation score
SGYCQDCSSGPFESDGINIS	-0.321 ± 1
SHAIHRCVGWFGVWTGTLFI	3.69 ± 0.083
SHDAYGIYRLQ	0.696 ± 0.38
SHYPKGCHWGGLHSGDRKFP	0.892 ± 0.45
SIFCGPDVVNTGPKLG	0.751 ± 0.6
SIFRLDDEGDPVMREPLM	1.22 ± 0.59
SIGNIVVLVEERSVRQPTLF	2.79 ± 0.14
SIHEMYFKAMDSVH	-0.276 ± 0.62
SILDATCCLGFYKVFAVGMK	-0.669 ± 0.44
SILTVKQRTYVNGGRLYSRY	0.005 ± 0.49
SINSSV	-0.166 ± 1.1
SINTAVSCFMAGICNGHRSE	8.246 ± 0.061
SIQRTVS	0.473 ± 0.2
SIRSRLEFSFFL	3.45 ± 0.047
SISIPCRYYKGLRSTSLYSR	-0.264 ± 0.26
SIVYTLTCVL	4.945 ± 0.038
SIWLFYHILVFVLMPFAVAF	inactive
SIYKIILNSILPPHYNFLTY	-1.21 ± 1
SKGNVV	0.709 ± 0.42
SKNDCRVFPSDMHFWHDLVE	0.351 ± 0.44
SKNLE	-2.09 ± 0.48
SKPCWLFRNK	-1.22 ± 1.1
SKPWKYNRFYLESSEWSSFC	1.47 ± 0.3
SKQTRYSSCGIISGLVDPFA	-0.329 ± 0.23
SKRFIVIATLNTYMFQKLEF	inactive
